The target in data set [1] is T1, Human VPAC2 Receptor (Homo sapiens, UniProt P41587).
T1 sequence (P41587 24-438): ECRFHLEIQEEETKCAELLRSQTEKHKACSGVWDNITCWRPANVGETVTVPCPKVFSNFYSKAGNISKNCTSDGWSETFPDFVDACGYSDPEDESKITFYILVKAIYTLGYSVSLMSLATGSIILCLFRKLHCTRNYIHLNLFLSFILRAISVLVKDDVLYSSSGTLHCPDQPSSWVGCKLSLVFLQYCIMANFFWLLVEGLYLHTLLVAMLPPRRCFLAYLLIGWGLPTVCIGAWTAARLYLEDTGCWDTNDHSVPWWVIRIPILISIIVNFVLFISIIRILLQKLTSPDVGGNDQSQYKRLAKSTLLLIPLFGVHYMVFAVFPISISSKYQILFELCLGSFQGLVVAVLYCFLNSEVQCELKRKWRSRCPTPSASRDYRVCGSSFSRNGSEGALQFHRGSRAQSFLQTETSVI
Briefly: Alpha screen cAMP potency at human VPAC2 receptor. The class given is cell-based. Particulars: cAMP generation; read-out: Human VPAC2 Receptor: Alphascreen (EC50; nM). The procedure: Alpha screen: Cells are washed in the culture flask once with PBS. Then, the cells are rinsed with enzyme free dissociation buffer. The dissociated cells are removed. The cells are then spun down and washed in stimulation buffer. For each data point, 50,000 cells suspended in stimulation buffer are used. To this buffer, Alpha screen acceptor beads are added along with the stimuli. This mixture is incubated for 60 minutes. Lysis buffer and Alpha screen donor beads are added and are incubated for 60 to 120 minutes. The Alpha screen signal (indicative of intracellular cAMP levels) is read in a suitable instrument (e.g. AlphaQuest from Perkin-Elmer). Steps including Alpha screen donor and acceptor beads are performed in reduced light. The EC50 for cAMP generation is calculated from the raw signal or is based on absolute cAMP levels as determined by a standard curve performed on each plate.
The tested peptide concentrations are: 10000, 1000, 100, 10, 3, 1, 0.1, 0.01, 0.003, 0.001, 0.0001 and 0.00001 nM.
Background: Alpha assays give light when donor and acceptor beads are brought close together.

The target in data set [2] is T1, Human VPAC2 Receptor. Briefly: Filter binding assay, 125I-labeled VIP, membranes of stable VPAC2 cell line. Conditions: 125I-labeled VIP tracer. The method, then: For this assay, the solutions and equipment include:
Presoak solution: 0.5% Polyethyleneamine in Aqua dest
Buffer for flushing filter plates: 25 mM HEPES pH 7.4
Blocking buffer: 25 mM HEPES pH 7.4; 0.2% protease free BSA
Assay buffer: 25 mM HEPES pH 7.4; 0.5% protease free BSA
Dilution and assay plate: PS-Microplate, U form
Filtration Plate Multiscreen FB Opaque Plate; […] Type B Glasfiber filter
In order to prepare the filter plates, the presoak solution is aspirated by vacuum filtration. The plates are flushed twice with 200 μL flush buffer. 200 μL blocking buffer is added to the filter plate. The filter plate is then incubated with 200 μL presoak solution for 1 hour at room temperature.
The assay plate is filled with 25 μL assay buffer, 25 μL membranes (2.5 μg) suspended in assay buffer, 25 μL agonist in assay buffer, and 25 μL tracer (about 40000 cpm) in assay buffer. The filled plate is incubated for 1 hour with shaking.
The transfer from assay plate to filter plate is conducted. The blocking buffer is aspirated by vacuum filtration and washed two times with flush buffer. 90 μL is transferred from the assay plate to the filter plate. The 90 μL transferred from assay plate is aspirated and washed three times with 200 μL flush buffer. The plastic support is removed. It is dried for 1 hour at 60° C. 30 μL Microscint is added. The count is performed.

The target of data set [3] is T2, Rat VPAC1 Receptor (Rattus norvegicus, UniProt P30083).
T2 construct: expressed in transfected cells; host or cells: CHO-PO (transient, Lipofectamine)
T2 sequence (P30083 31-459): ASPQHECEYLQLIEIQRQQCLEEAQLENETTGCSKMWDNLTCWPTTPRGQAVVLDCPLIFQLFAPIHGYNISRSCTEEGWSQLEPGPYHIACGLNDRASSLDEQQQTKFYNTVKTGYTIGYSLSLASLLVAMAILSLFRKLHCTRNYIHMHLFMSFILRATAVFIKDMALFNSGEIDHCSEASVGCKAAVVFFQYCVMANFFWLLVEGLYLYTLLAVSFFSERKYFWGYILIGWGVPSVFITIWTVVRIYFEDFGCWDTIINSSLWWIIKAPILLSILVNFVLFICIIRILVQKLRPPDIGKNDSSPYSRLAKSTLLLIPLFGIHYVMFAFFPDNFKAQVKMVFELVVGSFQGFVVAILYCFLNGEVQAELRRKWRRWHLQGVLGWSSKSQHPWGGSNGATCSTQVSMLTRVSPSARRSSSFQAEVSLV
Briefly: DiscoveRx cAMP potency, CHO-PO cells transiently transfected with rat VPAC1 receptor. Particulars: cAMP generation. The class given is cell-based. The method, then:
(§1) DiscoveRx: CHO-PO cells are transiently transfected with rat VPAC1 or VPAC2 receptor DNA using commercially available transfection reagents (Lipofectamine from Invitrogen). The cells are seeded at a density of 10,000/well in a 96-well plate and are allowed to grow for 3 days in […] culture medium At day 3, the assay is performed.
(§2) On the day of the experiment, the medium is removed. Also, the cells are washed twice. The cells are incubated in assay buffer plus IBMX for 15 minutes at room temperature. Afterwards, the stimuli are added and are dissolved in assay buffer. The stimuli are present for 30 minutes. Then, the assay buffer is gently removed. The cell lysis reagent of the DiscoveRx cAMP kit is added. Thereafter, the standard protocol for developing the cAMP signal as described by the manufacturer is used (DiscoveRx Inc., USA). EC50 values for cAMP generation are calculated from the raw signal or are based on absolute cAMP levels as determined by a standard curve performed on each plate.
(§3) Results for each agonist are the mean of two independent runs. Rat VPAC1 and VPAC2 results are only generated using the DiscoveRx assay.

Data set [4] concerns the target T3, Rat VPAC2 Receptor (Rattus norvegicus, UniProt P35000).
T3 construct: expressed in transfected cells; host or cells: CHO-PO (transient, Lipofectamine)
T3 sequence (P35000 23-437): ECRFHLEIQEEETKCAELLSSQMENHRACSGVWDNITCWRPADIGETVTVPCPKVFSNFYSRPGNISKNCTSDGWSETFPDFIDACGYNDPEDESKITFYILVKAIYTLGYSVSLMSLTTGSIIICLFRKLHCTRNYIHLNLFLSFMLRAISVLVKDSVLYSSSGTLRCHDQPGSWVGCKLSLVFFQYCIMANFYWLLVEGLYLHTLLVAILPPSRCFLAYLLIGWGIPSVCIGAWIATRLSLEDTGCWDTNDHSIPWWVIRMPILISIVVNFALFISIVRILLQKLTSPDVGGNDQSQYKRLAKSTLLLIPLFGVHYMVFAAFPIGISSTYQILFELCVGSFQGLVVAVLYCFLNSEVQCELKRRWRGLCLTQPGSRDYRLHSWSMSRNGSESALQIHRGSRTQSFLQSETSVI
Briefly: DiscoveRx cAMP potency, CHO-PO cells transiently transfected with rat VPAC2 receptor. Conditions: cAMP generation. The class given is cell-based. The method, then:
as §1, §2, §3

Data set [5] is described as follows: Rat serum stability study (DiscoveRx cAMP read-out on CHO-VPAC2 cells). Particulars: 24 h in rat serum at 37° C.; EC50, 4° C./EC50, 37° C.; values >100% may represent release of intact peptide from the PEG conjugate.

By EC50 is commonly meant the concentration giving half of the maximal effect. The term IC50 denotes the concentration at which inhibition is half-maximal. A higher IC50 goes with a need for much substance.

Some results are limits rather than exact numbers.

For “C6-HSDAVFTEK(CO(CH2)2SPEG40K)Y(OMe)TOrnLRAibQVAAAibOrnYLQSIOrnOrnGGPSSGAPPPS-NH2 (HSDAVFTEXYTXLRXQVAAXXYLQSIXXGGPSSGAPPPS; C6 acyl; PEG40K; non-natural residues; amide; Synthetic sequence PEGylated VPAC2 receptor peptide agonist) [Agonist P451]”, the EC50 in data set [1] amounted to 68.6 nM. The substance further yielded an IC50 in data set [2] of 596 nM.
Take “C6-HSDAVFTEQY(OMe)TOrnLRAibQC(PEG20K)AAAibOrnYLQSIOrnOrnGGPSSGAPPPC(PEG20K)-NH2 (HSDAVFTEQYTXLRXQCAAXXYLQSIXXGGPSSGAPPPC; C6 acyl, two PEG20K, C-terminal amide; Synthetic sequence PEGylated VPAC2 receptor agonist) [Agonist P568]”: the EC50 in data set [3] was above 1000 nM; in data set [4], 250 nM; in data set [1], 129 nM.
The like results for “C6-HSDAVFTEQY(OMe)TOrnLRAibQC(PEG40K)AAbuAibOrnY(OMe)LQAibIOrnOrnGGPSSGAPPPS-NH2 (HSDAVFTEQYTXLRXQCAXXXYLQXIXXGGPSSGAPPPS; C6 acyl, non-natural residues, PEG40K, C-terminal amide; Synthetic sequence PEGylated VPAC2 receptor agonist) [Agonist P578]” were, in that order, 269 nM, 306 nM and 205 nM.
On to “C6-HSDAVFTEQY(OMe)TOrnLRAibQC(PEG40K)AAbuAibOrnY(OMe)LQSIOrnOrnGGPSSGAPPPS-NH2 (HSDAVFTEQYTXLRXQCAXXXYLQSIXXGGPSSGAPPPS; C6 acyl, non-natural residues, PEG40K, C-terminal amide; Synthetic sequence PEGylated VPAC2 receptor agonist) [Agonist P586]”, for which the EC50 worked out at 502 nM in data set [3], 187 nM in data set [4] and 122 nM in data set [1].
The substance “C6-HSDAVFTEQY(OMe)TOrnLRAibQK(WPEG40K)AAAibOrnYLQSIOrnOrnGGPSSGAPPPS-NH2 (HSDAVFTEQYTXLRXQXAAXXYLQSIXXGGPSSGAPPPS; C6 acyl, PEG40K on Lys, C-terminal amide; Synthetic sequence PEGylated VPAC2 receptor agonist) [Agonist P533]” registered an IC50 in data set [2] of 959 nM.
Consider “C6-HSDAVFTEQY(OMe)TOrnLRAibQLAAbUAibOrnY(OMe)LQAibIOrnC(PEG40K)OrnGGPSSGAPPPS-NH2 (HSDAVFTEQYTXLRXQLAXXXYLQXIXCXGGPSSGAPPPS; C6 acyl, non-natural residues, PEG40K, C-terminal amide; Synthetic sequence PEGylated VPAC2 receptor agonist) [Agonist P576]”, for which the EC50 in data set [3] was 461 nM; in data set [4], 67.4 nM; in data set [1] it was 55 nM.
The like results for “C6-HSDAVFTEQY(OMe)TOrnLRAibQLAAbuAibOrnY(OMe)LQSIOrnC(PEG20K)OrnGGPSSGAPPPC(PEG20K)-NH2 (HSDAVFTEQYTXLRXQLAXXXYLQSIXCXGGPSSGAPPPC; C6 acyl, non-natural residues, two PEG20K, C-terminal amide; Synthetic sequence PEGylated VPAC2 receptor agonist) [Agonist P588]” were, in that order, 406 nM, 311 nM and 54 nM.
As for “C6-HSDAVFTEQY(OMe)TOrnLRAibQLAAbuAibOrnY(OMe)LQSIOrnC(PEG40K)OrnGGPSSGAPPPS-NH2 (HSDAVFTEQYTXLRXQLAXXXYLQSIXCXGGPSSGAPPPS; C6 acyl, non-natural residues, PEG40K, C-terminal amide; Synthetic sequence PEGylated VPAC2 receptor agonist) [Agonist P584]”, the EC50 was found to be 188 nM in data set [3], 67.2 nM in data set [4] and 51.2 nM in data set [1].
With “C6-HSDAVFTEQY(OMe)TOrnLRAibQVAAAibK(CO(CH2)2SPEG40K)YLQSIOrnOrnGGPSSGAPPPS-NH2 (HSDAVFTEQYTXLRXQVAAXXYLQSIXXGGPSSGAPPPS; C6 acyl; PEG40K; non-natural residues; amide; Synthetic sequence PEGylated VPAC2 receptor peptide agonist) [Agonist P472]”, the EC50 in data set [4] was found to be 285 nM; in data set [1], 123 nM. Besides, in data set [5], the “24 h stab (%)” value was 66%.
“C6-HSDAVFTEQY(OMe)TOrnLRAibQVAAAibOrnYAibQSIOrnOrnGGPSSGAPPPC(PEG40K)-NH2 (HSDAVFTEQYTXLRXQVAAXXYXQSIXXGGPSSGAPPPC; C6 acyl, PEG40K on Cys, C-terminal amide; Synthetic sequence PEGylated VPAC2 receptor agonist) [Agonist P507]”: the EC50 was above 1000 nM in data set [3], 94.9 nM in data set [4] and 27.1 nM in data set [1].

For the origin of these results see patent US7897573B2, “Selective VPAC2 receptor peptide agonists” (priority 2005, dated 2011).
